Four molecules from publication PMC8024055 (Nature, 2020) can be followed below.

The series “SEC” deals with the molecule itself. Nature of the series: SEC. (In general: In gel filtration, larger molecules generally elute earlier.)
The series “FRET or BRET” deals with the molecule itself. Description: FRET or BRET. A general note: BRET reads energy transfer from a luciferase to a nearby fluorophore.
Series [1] has as its target T1, His-MBP-FBXL17^310-701/Skp1 complex ( | human, UniProt Q9UF56;P63208). Description: FRET or BRET.
Series [2] deals with T1, His-MBP-FBXL17^310-701/Skp1 complex. Description: pull-down.
Series [3] concerns the target FBXL17^310-701 (tags removed, in the structures) (UniProt Q9UF56 310-701). Nature of the series: crystal structure.

T1 sequence (Q9UF56 310-701, chain 1 of 2): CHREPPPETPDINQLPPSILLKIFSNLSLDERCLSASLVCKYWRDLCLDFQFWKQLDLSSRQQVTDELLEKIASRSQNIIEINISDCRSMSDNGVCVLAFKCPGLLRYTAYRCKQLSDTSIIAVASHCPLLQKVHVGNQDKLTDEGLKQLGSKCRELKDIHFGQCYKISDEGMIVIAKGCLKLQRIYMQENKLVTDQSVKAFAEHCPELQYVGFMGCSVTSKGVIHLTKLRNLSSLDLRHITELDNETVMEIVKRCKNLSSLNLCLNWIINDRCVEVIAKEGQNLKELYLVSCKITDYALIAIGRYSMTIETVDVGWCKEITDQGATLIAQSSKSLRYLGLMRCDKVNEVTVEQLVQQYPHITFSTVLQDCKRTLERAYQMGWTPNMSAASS
T1 sequence (P63208 whole entry, chain 2 of 2): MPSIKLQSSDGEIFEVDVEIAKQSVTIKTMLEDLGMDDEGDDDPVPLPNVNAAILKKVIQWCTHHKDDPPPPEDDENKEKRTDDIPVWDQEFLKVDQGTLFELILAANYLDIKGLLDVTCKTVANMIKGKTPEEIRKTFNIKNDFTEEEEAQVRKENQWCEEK
Sequence of FBXL17^310-701 (tags removed, in the structures) (Q9UF56 310-701): as the sequence (Q9UF56 310-701, chain 1 of 2) above

B1: KEAP1^48-180 S172A (recombinant BTB domain, called wild type) (domain or fragment)
chain: GNRTFSYTLEDHTKQAFGIMNELRLSQQLCDVTLQVKYQDAPAAQFMAHKVVLASSSPVFKAMFTNGLREQGMEVVSIEGIHPKVMERLIEFAYTASISMGEKCVLHVMNGAVMYQIDSVVRACADFLVQQLD
Regarding B1, the “stoichiometry N” value in the series “SEC” worked out at 2.

B2: KEAP1^48-180 S172A/V98A (recombinant BTB domain) (domain or fragment)
chain: GNRTFSYTLEDHTKQAFGIMNELRLSQQLCDVTLQVKYQDAPAAQFMAHKAVLASSSPVFKAMFTNGLREQGMEVVSIEGIHPKVMERLIEFAYTASISMGEKCVLHVMNGAVMYQIDSVVRACADFLVQQLD
For B2, in “SEC”, the “stoichiometry N” value was 2.

B3: KEAP1^48-180 S172A/F64A/R116C labeled with Alexa Fluor 555 or Alexa Fluor 647 (domain or fragment)
chain: GNRTFSYTLEDHTKQAAGIMNELRLSQQLCDVTLQVKYQDAPAAQFMAHKVVLASSSPVFKAMFTNGLCEQGMEVVSIEGIHPKVMERLIEFAYTASISMGEKCVLHVMNGAVMYQIDSVVRACADFLVQQLD
In the case of B3, the binding result (in the series “FRET or BRET”; in series [1]) was “binds” in each case.

B4: KEAP1^48-180 S172A/F64A (recombinant BTB domain) (domain or fragment)
chain: GNRTFSYTLEDHTKQAAGIMNELRLSQQLCDVTLQVKYQDAPAAQFMAHKVVLASSSPVFKAMFTNGLREQGMEVVSIEGIHPKVMERLIEFAYTASISMGEKCVLHVMNGAVMYQIDSVVRACADFLVQQLD
As for B4, the binding result in series [2] and in series [3] was “binds” each time. The “stoichiometry N” value in the series “SEC” worked out at 2.

As usually defined, the stoichiometry N is a count of units in the complex or per binding partner.
